Results: patent publication US20170174733A1 (Genentech, published 2017)
Where two headings read alike, the source gives them in different places.

What was measured:
[1] = target: T1, LRP6 E1E2 with a C-terminal Avi-tag and His6-tag (human, UniProt O75581 20-630, biotinylated (Avi-tag) where loaded on streptavidin tips; unlabeled where in solution); assay: BLI on small-scale ExiProgen protein with C-terminal Avi-tag
T1 construct: domain: E1E2; also called LRP6 receptor fragment E1E2; biotinylated LRP6-E1E2; not shown: C-terminal Avi-tag and His6-tag
T1 sequence: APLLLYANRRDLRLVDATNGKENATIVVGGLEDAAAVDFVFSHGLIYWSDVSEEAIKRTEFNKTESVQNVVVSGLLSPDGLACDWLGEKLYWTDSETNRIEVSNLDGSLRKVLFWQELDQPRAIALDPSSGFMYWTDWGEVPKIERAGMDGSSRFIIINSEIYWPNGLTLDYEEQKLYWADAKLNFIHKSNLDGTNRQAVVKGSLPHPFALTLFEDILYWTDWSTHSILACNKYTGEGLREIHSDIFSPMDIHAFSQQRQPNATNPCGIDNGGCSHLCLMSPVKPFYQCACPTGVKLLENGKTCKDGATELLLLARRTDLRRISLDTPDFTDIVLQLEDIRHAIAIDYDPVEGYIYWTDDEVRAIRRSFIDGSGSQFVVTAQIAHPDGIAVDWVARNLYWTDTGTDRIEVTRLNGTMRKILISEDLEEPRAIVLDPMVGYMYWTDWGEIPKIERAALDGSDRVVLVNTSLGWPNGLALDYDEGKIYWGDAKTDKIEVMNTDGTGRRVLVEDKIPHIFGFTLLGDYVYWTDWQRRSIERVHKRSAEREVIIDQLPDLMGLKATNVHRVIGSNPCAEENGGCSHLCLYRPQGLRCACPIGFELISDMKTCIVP

[2] = target: T2, VEGF109 (UniProt P15692 214-315, biotinylated where loaded on streptavidin tips); assay: BLI (OctetRED384): biotinylated VEGF109 on SA sensor tips
T2 construct: range 8-109; also called VEGF8-109; biotinylated VEGF109
T2 sequence: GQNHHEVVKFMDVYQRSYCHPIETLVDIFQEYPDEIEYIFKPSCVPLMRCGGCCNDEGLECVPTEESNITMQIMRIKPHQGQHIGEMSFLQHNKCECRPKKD

[3] = target: T3, human VEGF (human, UniProt P15692 27-191); assay: cell-based or functional assay
T3 sequence (P15692 other isoform, or with tags, fused parts or gaps limits assumed): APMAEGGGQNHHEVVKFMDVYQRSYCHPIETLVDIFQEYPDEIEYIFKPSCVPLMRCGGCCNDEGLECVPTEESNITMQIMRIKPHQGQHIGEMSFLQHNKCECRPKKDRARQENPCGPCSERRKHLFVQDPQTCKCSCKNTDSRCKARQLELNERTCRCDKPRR

[4] = target: T3, human VEGF; assay: cell-based or functional assay; remark: listed apart in the source
[5] = target: T3, human VEGF; assay: cell-based or functional assay; remark: listed apart in the source
[6] = target: T4, biotinylated VEGF165 (UniProt P15692 27-191); assay: competition binding ELISA: blocks biotinylated VEGF165 binding to coated VEGFR1-Fc
T4 construct: range 1-165; also called VEGF1-165
T4 sequence (P15692 other isoform, or with tags, fused parts or gaps limits assumed): as above

[7] = target: T4, biotinylated VEGF165; assay: competition binding ELISA: biotinylated VEGF165 premixed with the binder, then on coated VEGFR1-Fc (blocked partner), OD 450 nm
[8] = target: T2, VEGF109
[9] = target: T3, human VEGF; assay: cell-based or functional assay; remark: listed apart in the source
[10] = target: T2, VEGF109; assay: BLI (OctetRED384): biotinylated VEGF109 on tips
[11] = target: T2, VEGF109; assay: BLI (OctetRED384): biotinylated VEGF109 on tips, monomeric variant in solution

B1: chagasin LRP6 variant S15 (designed binder)
chain: MSHKVTKAHNGATLTVAVGELVEIQLPSNADGFAWYFEGGTKESPNESMFTVENKYFPSNSTKRGAGGTEHFHVTVKAAGTHAVNLTYMRREKGSTLVVERFTVYLKAN
modifications: biotinylated at the Avi-tag (BirA)
notes: not shown: C-terminal His6-tag and Avi-tag (ExiProgen small-scale expression)
- binding result [1]: binds

B2: chagasin VEGF variant 66 (designed binder)
chain: MSHKVTKAHNGATLTVAVGELVEIQLPSNYYYDGFAWYFEGGTKESPNESMFTVENKYFPHYYNLGGRYTGAGGTEHFHVTVKAAGTHAVNLTYMGPWLGPSRVLERFTVYLKAN
notes: also called clone 66; not shown: C-terminal His6-tag and Avi-tag of the ExiProgen small-scale expression
- binding result [2]: binds

B3: GST-fused chagasin VEGF variant 4-66-F6 (designed binder)
chain: MSHKVTKAHNGATLTVAVGELVEIQLPSNYFYDGFAWYFEGGTKESPNESMFTVENKYFPNDPGSRLSGAGGTEHFHVTVKAAGTHAVNLTYMAPWLGPSRVLERFTVYLKAN
notes: also called GST-Variant 4; variant 4 as a GST-fusion protein; not shown: N-terminal His6-GST-tag and TEV cleavage site (pET52b backbone)
- IC50, inhibition of VEGF-dependent KDR phosphorylation on KDR-expressing CHO cells [3]: 72 nM
- Inhibitory activity (IC50, nM) against VEGF in cell-based assays [4]: 28 nM
- Inhibitory activity (IC50, nM) against VEGF in cell-based assays [5]: 73 nM
- IC50 [6]: 13 nM
- IC50 [7]: 14 nM

B4: monomeric chagasin VEGF variant L4X6-7 (designed binder)
chain: MSHKVTKAHNGATLTVAVGELVEIQLPSNYFREGFAWYFEGGTKESPNESMFTVENKYFPHVQWGWGAGGTEHFHVTVKAAGTHAVNLTYMAPWVGPSRELERFTVYLKAN
- Kd [8]: 160 nM
- fold improvement of IC50 over the parental chagasin variant 4 [3]: 13 fold
- Inhibitory Activity (IC50, nM) against hVEGF in cell-based assays [9]: 65 nM
- fold improvement of Kd over the parental variant 4 [10]: 2.5 fold
- Kd [11]: 150 nM
